T1: human IL-2Rα subunit (human, UniProt P01589 22-213, limits assumed)
T1 construct: also called CD25
T1 sequence (looked up): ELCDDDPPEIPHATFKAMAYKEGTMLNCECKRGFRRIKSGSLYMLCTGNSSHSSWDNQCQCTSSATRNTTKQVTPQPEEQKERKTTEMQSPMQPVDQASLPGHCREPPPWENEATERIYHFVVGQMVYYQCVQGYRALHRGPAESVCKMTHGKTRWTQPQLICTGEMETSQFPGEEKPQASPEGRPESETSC

B1: SEQ ID NO 131 (peptide)
peptide: GSRCYWDPGREVCIFK
B2: SEQ ID NO 10 (peptide)
peptide: FVPWDVYFSQIL
B3: SEQ ID NO 111 (peptide)
peptide: EWECLFMPGRRGCLLM
modifications: disulfide 4-13 (inferred)
B4: SEQ ID NO 128 (peptide)
peptide: FFLCDDFPGLPRCEWI
B5: SEQ ID NO 115 (peptide)
peptide: VYECLFMPGRKGCFGM
B6: SEQ ID NO 119 (peptide)
peptide: YWECVFMPGHRGCSLI
B7: SEQ ID NO 120 (peptide)
peptide: TWDCLFLPGRRGCTLM
B8: SEQ ID NO 133 (peptide)
peptide: KSWCFDHPGYPICQFY
B9: SEQ ID NO 121 (peptide)
peptide: NWECIFSPGRRGCSLT
B10: SEQ ID NO 132 (peptide)
peptide: KLWCQNNPGNSICDMY
B11: SEQ ID NO 116 (peptide)
peptide: EWECWFLPGRRGCTLI
B12: SEQ ID NO 110 (peptide)
peptide: DWECLFLPGRRGCLLF
B13: SEQ ID NO 114 (peptide)
peptide: DWECIFLPGRRGCTLF
modifications: disulfide 4-13 (inferred)
B14: SEQ ID NO 9 (peptide)
peptide: FIPWDEYFKQVL
B15: SEQ ID NO 127 (peptide)
peptide: ETPCDLHPGHWSCSMV
B16: SEQ ID NO 117 (peptide)
peptide: DWHCLFLPGHRGCTLF
modifications: disulfide 4-13 (inferred)
B17: SEQ ID NO 134 (peptide)
peptide: RLFCLMNPGPPDCWIY
B18: SEQ ID NO 126 (peptide)
peptide: AGWCKLNPGTQVCSFY
modifications: disulfide 4-13 (inferred)
B19: SEQ ID NO 129 (peptide)
peptide: GLRCYFDPGSQICTFL
B20: SEQ ID NO 112 (peptide)
peptide: AWECLFLPGHRGCSLF
B21: SEQ ID NO 113 (peptide)
peptide: EWECLFLPGRKGCTLF
B22: SEQ ID NO 130 (peptide)
peptide: GQRCTYDPGQDACVFS

IC50 data for 22 molecules are collected here from US20200399314A1 (MEDIKINE, published 2020).

Bridge positions count the residues as written; N and C are the ends. Ends that are not written are not given here.

In the assay the target is T1, human IL-2Rα subunit.
The molecule B1 returned an IC50 below 100 µM.

B2 had an IC50 below 100 µM.

For the molecule B3, the 50% inhibitory concentration (IC50) is below 100 µM.

The molecule B4 came in with a 50% inhibitory concentration (IC50) below 100 µM.

Regarding B5, the IC50 was below 100 µM.

In turn, B6 returned an IC50 below 100 µM.

For B7, the IC50 is below 100 µM.

B8 had a half-maximal inhibitory concentration (IC50) below 100 µM.

In turn, B9 yielded an IC50 below 100 µM.

Turning to B10, the IC50 is below 100 µM.

On to B11, for which the IC50 was below 100 µM.

In turn, B12 had an IC50 below 100 µM.

With B13, the IC50 was below 100 µM.

With B14, the IC50 is below 100 µM.

On to B15, for which the IC50 is below 100 µM.

B16 showed an IC50 below 100 µM.

On to B17, for which the half-maximal inhibitory concentration (IC50) was below 100 µM.

Turning to B18, the IC50 is below 100 µM.

Molecule B19 yielded an IC50 below 100 µM.

In turn, B20 gave a half-inhibitory concentration (IC50) below 100 µM.

Consider B21, for which the concentration for half-maximal inhibition (IC50) was below 100 µM.

On to B22, for which the IC50 is below 100 µM.

Broadly, the IC50 is the point on the concentration scale where inhibition reaches its midpoint.
